Article PMC2777442 (Nucleic Acids Research, 2009)
Where two headings read alike, the source gives them in different places.

Experiments:
[1] = target: T1, TFAM (mature, MTS removed) (Homo sapiens, UniProt Q00059 50-246); assay: fluorescence anisotropy
T1 sequence: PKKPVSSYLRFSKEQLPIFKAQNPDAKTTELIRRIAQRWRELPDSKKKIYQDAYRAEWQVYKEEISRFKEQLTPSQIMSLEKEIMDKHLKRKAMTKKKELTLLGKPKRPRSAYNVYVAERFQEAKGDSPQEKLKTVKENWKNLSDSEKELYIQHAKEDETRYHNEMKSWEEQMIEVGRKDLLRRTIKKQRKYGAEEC

[2] = target: T1, TFAM (mature, MTS removed); assay: fluorescence anisotropy; remark: listed apart in the source
AUC = target: the molecule itself; assay: AUC

B1: Normal-DNA-S (dsDNA)
DNA 1: CGATATTGAGCC
DNA 2: GGCTCAATATCG
- apparent K (half saturation) [1]: 413 ± 59 nM

B2: Bulged-DNA-S (dsDNA)
DNA 1: CGATATTAAGAGCC
DNA 2: GGCTCAATATCG
- apparent K (half saturation) [2]: 164 ± 17 nM

B3: Human mitochondrial transcription factor A (TFAM), residues 50-246 (natural protein, UniProt Q00059-1 50-246, looked up)
chain: PKKPVSSYLRFSKEQLPIFKAQNPDAKTTELIRRIAQRWRELPDSKKKIYQDAYRAEWQVYKEEISRFKEQLTPSQIMSLEKEIMDKHLKRKAMTKKKELTLLGKPKRPRSAYNVYVAERFQEAKGDSPQEKLKTVKENWKNLSDSEKELYIQHAKEDETRYHNEMKSWEEQMIEVGRKDLLRRTIKKQRKYGAEEC
- stoichiometry N (AUC): 2
